Results from patent US20120122239A1.

Tests used:
[1] = molecular target: human pro B-type natriuretic peptide (HyTest, Turku, Finland; Catalog No. 8PRO8) (human); test: sandwich CMIA, capture 15F11, analyte 577.4 pM
[2] = molecular target: human NT-pro B-type natriuretic peptide (HyTest, Turku, Finland; Catalog No. 8NT1) (human); test: sandwich CMIA, capture 15F11, analyte 577.4 pM
[3] = molecular target: glycosylated human proBNP (HyTest, Turku, Finland; Catalog No. 8GOB2) (human); test: sandwich CMIA, capture 15F11, analyte 577.4 pM
glycosylated human proBNP (HyTest, Turku, Finland; Catalog No. 8GOB2) (human), sequence (chain, as listed by the source): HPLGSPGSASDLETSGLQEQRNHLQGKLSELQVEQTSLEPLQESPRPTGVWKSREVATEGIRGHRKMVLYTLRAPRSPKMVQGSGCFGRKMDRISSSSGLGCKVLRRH

[4] = molecular target: human pro B-type natriuretic peptide (HyTest, Turku, Finland; Catalog No. 8PRO8) (human); test: sandwich CMIA, capture 15C4, analyte 577.4 pM
[5] = molecular target: human NT-pro B-type natriuretic peptide (HyTest, Turku, Finland; Catalog No. 8NT1) (human); test: sandwich CMIA, capture 15C4, analyte 577.4 pM
[6] = molecular target: glycosylated human proBNP (HyTest, Turku, Finland; Catalog No. 8GOB2) (human); test: sandwich CMIA, capture 15C4, analyte 577.4 pM
[7] = molecular target: human pro B-type natriuretic peptide (HyTest, Turku, Finland; Catalog No. 8PRO8) (human); test: sandwich CMIA, capture 15C4, analyte 43.3 pM
[8] = molecular target: human NT-pro B-type natriuretic peptide (HyTest, Turku, Finland; Catalog No. 8NT1) (human); test: sandwich CMIA, capture 15C4, analyte 43.3 pM
[9] = molecular target: glycosylated human proBNP (HyTest, Turku, Finland; Catalog No. 8GOB2) (human); test: sandwich CMIA, capture 15C4, analyte 43.3 pM
[10] = molecular target: human pro B-type natriuretic peptide (HyTest, Turku, Finland; Catalog No. 8PRO8) (human); test: sandwich CMIA, capture 15C4, analyte 86.6 pM
[11] = molecular target: human NT-pro B-type natriuretic peptide (HyTest, Turku, Finland; Catalog No. 8NT1) (human); test: sandwich CMIA, capture 15C4, analyte 86.6 pM
[12] = molecular target: glycosylated human proBNP (HyTest, Turku, Finland; Catalog No. 8GOB2) (human); test: sandwich CMIA, capture 15C4, analyte 86.6 pM
[13] = molecular target: human pro B-type natriuretic peptide (HyTest, Turku, Finland; Catalog No. 8PRO8) (human); test: sandwich CMIA, capture 15F11, analyte 288.7 pM
[14] = molecular target: human NT-pro B-type natriuretic peptide (HyTest, Turku, Finland; Catalog No. 8NT1) (human); test: sandwich CMIA, capture 15F11, analyte 288.7 pM
[15] = molecular target: glycosylated human proBNP (HyTest, Turku, Finland; Catalog No. 8GOB2) (human); test: sandwich CMIA, capture 15F11, analyte 288.7 pM
[16] = molecular target: human pro B-type natriuretic peptide (HyTest, Turku, Finland; Catalog No. 8PRO8) (human); test: sandwich CMIA, capture 15F11, against human NT-proBNP
[17] = molecular target: human pro B-type natriuretic peptide (HyTest, Turku, Finland; Catalog No. 8PRO8) (human); test: sandwich CMIA, capture 15F11, 43.3 pM, against human NT-proBNP
[18] = molecular target: glycosylated human proBNP (HyTest, Turku, Finland; Catalog No. 8GOB2) (human); test: as above
[19] = molecular target: human pro B-type natriuretic peptide (HyTest, Turku, Finland; Catalog No. 8PRO8) (human); test: sandwich CMIA, capture 15C4, analyte 0.0 pM (blank)
[20] = molecular target: human NT-pro B-type natriuretic peptide (HyTest, Turku, Finland; Catalog No. 8NT1) (human); test: as above
[21] = molecular target: glycosylated human proBNP (HyTest, Turku, Finland; Catalog No. 8GOB2) (human); test: as above
[22] = molecular target: human pro B-type natriuretic peptide (HyTest, Turku, Finland; Catalog No. 8PRO8) (human); test: sandwich CMIA, capture 15F11, 577.4 pM, against human NT-proBNP
[23] = molecular target: glycosylated human proBNP (HyTest, Turku, Finland; Catalog No. 8GOB2) (human); test: as above
[24] = molecular target: human pro B-type natriuretic peptide (HyTest, Turku, Finland; Catalog No. 8PRO8) (human); test: sandwich CMIA, capture 15F11, analyte 43.3 pM
[25] = molecular target: human NT-pro B-type natriuretic peptide (HyTest, Turku, Finland; Catalog No. 8NT1) (human); test: sandwich CMIA, capture 15F11, analyte 43.3 pM
[26] = molecular target: glycosylated human proBNP (HyTest, Turku, Finland; Catalog No. 8GOB2) (human); test: sandwich CMIA, capture 15F11, analyte 43.3 pM
[27] = molecular target: human pro B-type natriuretic peptide (HyTest, Turku, Finland; Catalog No. 8PRO8) (human); test: sandwich CMIA, capture 15F11, 288.7 pM, against human NT-proBNP
[28] = molecular target: glycosylated human proBNP (HyTest, Turku, Finland; Catalog No. 8GOB2) (human); test: as above
[29] = molecular target: human pro B-type natriuretic peptide (HyTest, Turku, Finland; Catalog No. 8PRO8) (human); test: sandwich CMIA, capture 15F11, 86.6 pM, against human NT-proBNP
[30] = molecular target: glycosylated human proBNP (HyTest, Turku, Finland; Catalog No. 8GOB2) (human); test: as above
[31] = molecular target: human pro B-type natriuretic peptide (HyTest, Turku, Finland; Catalog No. 8PRO8) (human); test: sandwich CMIA, capture 15F11, analyte 86.6 pM
[32] = molecular target: human NT-pro B-type natriuretic peptide (HyTest, Turku, Finland; Catalog No. 8NT1) (human); test: sandwich CMIA, capture 15F11, analyte 86.6 pM
[33] = molecular target: glycosylated human proBNP (HyTest, Turku, Finland; Catalog No. 8GOB2) (human); test: sandwich CMIA, capture 15F11, analyte 86.6 pM
[34] = molecular target: human pro B-type natriuretic peptide (HyTest, Turku, Finland; Catalog No. 8PRO8) (human); test: sandwich CMIA, capture 15C4, analyte 288.7 pM
[35] = molecular target: human NT-pro B-type natriuretic peptide (HyTest, Turku, Finland; Catalog No. 8NT1) (human); test: sandwich CMIA, capture 15C4, analyte 288.7 pM
[36] = molecular target: glycosylated human proBNP (HyTest, Turku, Finland; Catalog No. 8GOB2) (human); test: sandwich CMIA, capture 15C4, analyte 288.7 pM
[37] = molecular target: human pro B-type natriuretic peptide (HyTest, Turku, Finland; Catalog No. 8PRO8) (human); test: sandwich CMIA, capture 15F11, analyte 0.0 pM (blank)
[38] = molecular target: human NT-pro B-type natriuretic peptide (HyTest, Turku, Finland; Catalog No. 8NT1) (human); test: as above
[39] = molecular target: glycosylated human proBNP (HyTest, Turku, Finland; Catalog No. 8GOB2) (human); test: as above
[40] = molecular target: human pro B-type natriuretic peptide (HyTest, Turku, Finland; Catalog No. 8PRO8) (human); test: sandwich CMIA, capture 15C4, 86.6 pM, against human NT-proBNP
[41] = molecular target: glycosylated human proBNP (HyTest, Turku, Finland; Catalog No. 8GOB2) (human); test: as above
[42] = molecular target: human pro B-type natriuretic peptide (HyTest, Turku, Finland; Catalog No. 8PRO8) (human); test: sandwich CMIA, capture 15C4, 288.7 pM, against human NT-proBNP
[43] = molecular target: glycosylated human proBNP (HyTest, Turku, Finland; Catalog No. 8GOB2) (human); test: as above
[44] = molecular target: human pro B-type natriuretic peptide (HyTest, Turku, Finland; Catalog No. 8PRO8) (human); test: sandwich CMIA, capture 15C4, 577.4 pM, against human NT-proBNP
[45] = molecular target: glycosylated human proBNP (HyTest, Turku, Finland; Catalog No. 8GOB2) (human); test: as above
[46] = molecular target: human pro B-type natriuretic peptide (HyTest, Turku, Finland; Catalog No. 8PRO8) (human); test: sandwich CMIA, capture 15C4, 43.3 pM, against human NT-proBNP
[47] = molecular target: glycosylated human proBNP (HyTest, Turku, Finland; Catalog No. 8GOB2) (human); test: as above
[48] = molecular target: human pro B-type natriuretic peptide (HyTest, Turku, Finland; Catalog No. 8PRO8) (human); test: sandwich CMIA, 15C4 (63-71) with 16F3 (13-20), against human NT-proBNP

human NT-pro B-type natriuretic peptide (HyTest, Turku, Finland; Catalog No. 8NT1) (human), sequence (chain, as listed by the source): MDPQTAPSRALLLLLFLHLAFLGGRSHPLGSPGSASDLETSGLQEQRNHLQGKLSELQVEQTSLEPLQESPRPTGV

Row | Analyte rlus [1] | Analyte rlus [2] | Analyte rlus [3] | Analyte rlus [4] | Analyte rlus [5] | Analyte rlus [6] | Analyte rlus [7] | Analyte rlus [8] | Analyte rlus [9] | Analyte rlus [10] | Analyte rlus [11] | Analyte rlus [12] | Analyte rlus [13] | Analyte rlus [14] | Analyte rlus [15] | Analyte rlus [19] | Analyte rlus [20] | Analyte rlus [21] | Analyte rlus [24] | Analyte rlus [25] | Substance | also measured
1 | 3360 rlus | 662000 rlus | 1450 rlus | 1960 rlus | 2080 rlus | 1790 rlus | 2180 rlus | 1980 rlus | 1800 rlus | 1820 rlus | 2000 rlus | 1880 rlus | 2190 rlus | 312000 rlus | 1580 rlus | 1940 rlus | 1940 rlus | 1940 rlus | 1490 rlus | 21200 rlus | anti-human NT proBNP/anti-human proBNP monoclonal antibody 15C4 (HyTest, Turku, Finland) | % Cross-reactivity [16]: < 1%; % Cross-reactivity [17]: 0.7%; % Cross-reactivity [18]: -0.4%; % Cross-reactivity [22]: 0.3%; % Cross-reactivity [23]: 0%; Analyte rlus [26]: 1260 rlus; % Cross-reactivity [27]: 0.3%; % Cross-reactivity [28]: 0.1%; % Cross-reactivity [29]: 0.4%; % Cross-reactivity [30]: 1.2%; Analyte rlus [31]: 1540 rlus; Analyte rlus [32]: 57200 rlus; Analyte rlus [33]: 2010 rlus; Analyte rlus [34]: 1880 rlus; Analyte rlus [35]: 2060 rlus; Analyte rlus [36]: 1860 rlus; Analyte rlus [37]: 1340 rlus; Analyte rlus [38]: 1340 rlus; Analyte rlus [39]: 1340 rlus
2 | 914 rlus | 631 rlus | 635 rlus | 34700 rlus | 320000 rlus | 1090 rlus | 1990 rlus | 11400 rlus | 691 rlus | 4060 rlus | 26500 rlus | 861 rlus | 720 rlus | 696 rlus | 643 rlus | 1040 rlus | 1040 rlus | 1040 rlus | 624 rlus | 630 rlus | anti-human NT-proBNP/anti-human proBNP labeled monoclonal antibody 16F3 (HyTest, Turku, Finland) | % Cross-reactivity [40]: 11.9%; % Cross-reactivity [41]: -0.7%; % Cross-reactivity [42]: 9.1%; % Cross-reactivity [43]: -0.2%; % Cross-reactivity [44]: 10.6%; % Cross-reactivity [45]: 0%; % Cross-reactivity [46]: 9.2%; % Cross-reactivity [47]: -3.3%; Analyte rlus [26]: 586 rlus; Analyte rlus [31]: 621 rlus; Analyte rlus [32]: 592 rlus; Analyte rlus [33]: 587 rlus; Analyte rlus [34]: 13700 rlus; Analyte rlus [35]: 140000 rlus; Analyte rlus [36]: 827 rlus; % Cross-reactivity [48]: 10%; Analyte rlus [37]: 640 rlus; Analyte rlus [38]: 640 rlus; Analyte rlus [39]: 640 rlus
3 | 1240 rlus | 357000 rlus | 892 rlus | 735 rlus | 850 rlus | 770 rlus | 718 rlus | 786 rlus | 781 rlus | 747 rlus | 699 rlus | 751 rlus | 1090 rlus | 124000 rlus | 906 rlus | 821 rlus | 821 rlus | 821 rlus | 904 rlus | 7380 rlus | anti-human NT-proBNP/anti-human proBNP labeled monoclonal antibody 24E11 (HyTest, Turku, Finland) | % Cross-reactivity [16]: < 1%; % Cross-reactivity [17]: 0.3%; % Cross-reactivity [18]: -0.4%; % Cross-reactivity [22]: 0.1%; % Cross-reactivity [23]: 0%; Analyte rlus [26]: 863 rlus; % Cross-reactivity [27]: 0.2%; % Cross-reactivity [28]: 0%; % Cross-reactivity [29]: 0.3%; % Cross-reactivity [30]: 0.2%; Analyte rlus [31]: 938 rlus; Analyte rlus [32]: 20800 rlus; Analyte rlus [33]: 918 rlus; Analyte rlus [34]: 834 rlus; Analyte rlus [35]: 814 rlus; Analyte rlus [36]: 725 rlus; Analyte rlus [37]: 886 rlus; Analyte rlus [38]: 886 rlus; Analyte rlus [39]: 886 rlus
